In patent US20190338026A1 (University of Texas, published 2019):

T1: human LAIR1 extracellular domain (ECD) protein with 6 HIS tag at the C-terminus (human, UniProt Q6GTX8 22-165)
T1 construct: Produced recombinantly in HEK293 cells; the whole entry is named here; also called LAIR1 ECD; LAIR1-ECD
T1 chain: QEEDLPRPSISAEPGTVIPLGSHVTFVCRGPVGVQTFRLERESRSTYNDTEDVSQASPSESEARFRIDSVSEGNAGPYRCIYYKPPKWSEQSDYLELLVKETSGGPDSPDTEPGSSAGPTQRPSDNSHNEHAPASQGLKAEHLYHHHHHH

T2: LAIR1 on LAIR1 reporter cells (human, UniProt Q6GTX8 22-165, limits assumed)
T2 chain: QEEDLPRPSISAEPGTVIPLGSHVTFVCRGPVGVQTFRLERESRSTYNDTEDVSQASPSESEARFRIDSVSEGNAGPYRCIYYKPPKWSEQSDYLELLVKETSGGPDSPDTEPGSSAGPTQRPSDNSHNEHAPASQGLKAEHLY


Assays:
[1] = biological target: T1, human LAIR1 extracellular domain (ECD) …; experiment: ELISA, LAIR1 ECD coated
Procedure: (§1) The inventors then used a concentration titration (0-10 μg/ml) by ELISA to determine the LAIR1 monoclonal antibody (mAbs) binding to human LAIR1 ECD. […] For FIGS. 2-39, X axis indicates the antibody concentrations and Y-axis is binding signals, measured as OD (450 nm). To perform the ELISA assay, LAIR1 ECD recombinant protein was coated on high absorption 96-well plates. Serial diluted (3-fold) LAIR1 mAb was added to the coated/blocked plates and detected using goat anti-rabbit F(ab′)2 conjugated HRP as secondary antibody. All assays were repeated 3 times and the titration curves were fitted using 4-parameter fitting curve using the GraphPad software for EC₅₀ estimation.
(§2) Serial dilutions of the LAIR1 monoclonal antibodies (IgGs or scFvs fragments), starting from […] and 3-fold titration down for 12 steps, were added to the 96-well plate for binding by incubating 45 minutes at 37° C. with a cover on the assay plate. Then the plates were washed with PBS containing Tween 20 (0.05% concentration) for 3 times and PBS one time. […] Detection was conducted by adding HRP substrate, TMB (ThermoFisher) for 10 minutes, and stopped by adding 50 μl/well of 2N H2504. The plates were read for absorbance at 450 nm using a plate reader (SpectraMax M4, Molecular Devices). Data were collected and graphed using a 4-parameter fitting curve with GrapPad Prism 7 software for EC₅₀ calculation.

[2] = biological target: T1, human LAIR1 extracellular domain (ECD) …; experiment: ELISA, LAIR1 ECD coated, mAb titrated, anti-rabbit HRP
Procedure: as §1, §2

[3] = biological target: T2, LAIR1 on LAIR1 reporter cells; experiment: cell-based or functional assay

Binder | EC50 (read off the curve) [1] | EC50 [2] | GFP+% of LAIR1 reporter cells, collagen I coated, soluble Ab [3]
LA-56 (antibody, V domains shown, Rabbit monoclonal IgG; also called mAb LA-56) VH: SSSVEESGGRLVTPGTPLTLTCTVSGFSLSAYWVGWVRQAPGKGLEYIGFVDVDIYYASWARGRFTISKTSSTTVDLILTSPTMEDTATYFCVRMSYNAMDLWGPGTLVTISS VL: ELDLTQTASSVSAAVGDTVTINCQSSESVYKDNFLSWYQQKPGQPPKLLIYRASTLASGVPSRFKGSGSGSQFTLTISDVVCDDAATYYCSGYRNSHDGLPFGGGTEVEIK | ~7 ng/mL | 0.05 nM | –
LA-171 (antibody, V domains shown, Rabbit monoclonal IgG) VH: EQSVEESGGRLVTPGGSLTLTCTVSGFSLSSYNMGWVRQAPGKGLEYIGWISLGGNTYYASWVNGRFTISKTSTTVELKISSPTTEDTATYFCARGAGSLYYGDYYFTLWGPGTLVTISS VL: ELVLTQTPSSVSAAVGGTVTIKCQASQSIYSNLAWYQQKPGQPPKLLIYKASNLASGVPSRFKGSGSGTEYTLTISDLECADAATYYCQNYYGINDYGAAFGGGTEVVVK | ~10 ng/mL | 0.09 nM | –
LA-245 (antibody, V domains shown, Rabbit monoclonal IgG) VH: QSLQESRGRLVTPGTPLTLTCTASGFSLSSYHMGWVRQAPGKGLEWIGYIHTNRNTWYANWAKGRFTISKTSSTTVNLRMTSPTTEDTATYFCARGSYGDYNFLFDVWGPGTLVTVSS VL: ELVMTQTPASVSEPVGGTVTINCQASEDISIYLAWYQQKPGQPPKLLIYDASTLESGVPSRFSGSGSRTQFTLTISDLECADAATYYCQQYSTTDTNNLFGGGTEVEIK | ~10 ng/mL | 0.09 nM | –
LA-111 (antibody, V domains shown, Rabbit monoclonal IgG) VH: EQSVEESGGGLVAPGGSLTLTCTVSGFSLSNYHMGWVRQAPGKGLEWIGYIYTHGTTFYASWAKGRFTISKTSTTVDLKMTRLTTGDTATYFCARGGYADYNILYNLWGPGTLVTISS VL: ELVLTQTPASVEAAVGGTVTINCQASQSISSYLAWYQQKPGQPPKLLIYDASDLASGVPSRFKGSRSGTEFTFTISDLECADAATYYCQTYDSSTTAAFGGGTEVEIK | ~10 ng/mL | 0.09 nM | –
LA-258-1 (antibody, V domains shown, Rabbit monoclonal IgG) VH: QSVKESGGDLVKPEGSLTLTCKASGFSFSNSYYMCWVRQAPGKGLEWIACIYTGSTSGTYYASWVNGRFTISKTPSTTVTLQMTSLTVADTATYFCSRKLTNFNGAYLDLWGPGTLVTISS VL: ELVLTQTPASVEAAVGGTVTINCQASQSISNLLAWYQQKPGQRPKLLIYRASTLASGVSSRFKGSGSGTEYTLTISGVQCDDAATYYCQQGYTSNNVDNAFGGGTEVEIK | – | 4.21 nM | –
LA-145 (antibody, V domains shown, Rabbit monoclonal IgG) VH: SSSVEESGGRLVTPGTPLTLTCTVSGFSLSSYVMGWVRQAPGKGLEWIGTISIRSNTYYASWAKGRFTISKTSTTVDLKITSPITEDTATYFCARGAGNVYYSDYYFSLWGPGTLVTISS VL: ELVMTQPPASVSAAVGGTVTINCQASQNIYSNLAWYQQRPGQPPKLLIYKASTLASGVPSRFKGSGSGTDYTLTITDLECADAATYYCQTYYNMMDDGAAFGGGTEVEIK | ~10 ng/mL | 0.08 nM | –
LA-60 (antibody, V domains shown, Rabbit monoclonal IgG; also called mAb LA-60) VH: EQSLESGGGLVQPEGSLTLTCTASGFSFSNSYYMCWVRQAPGKGLEWIGCIYTGSSSGTYYASWAEGRFTISKTPSTTVTLQMTSLTAADTATYFCSRKLTNFNGAYLDLWGPGTLVTVSS VL: ELVLTQTPASVEAAVGGTVTIKCQASQSIYSYLAWYQQKPGQPPKVLIYKASTLASGVPSRFKGSGSGTEFTLTISDLECADAATYYCQNNNGGSDNTFGGGTEVVVK | ~10 ng/mL | 0.1 nM | 6.5%
LA-6 (antibody, V domains shown, Rabbit monoclonal IgG; also called mAb LA-6) VH: EQSVEESGGDLVKPEGSLTLTCTASGFSFSSGYYMCWVRQAPGKGLEWIGCIHSSSGNIYYASWAKGRFTISKTSSTTVDLQLTSLTAADTATYFCARDSEVYGWNPNDLWGPGTLVTVSS VL: ELDMTQTPASVSEPVGGTVTIKCQASQSISSYLAWYQQKPGQRPKLLIYGASNLASGVSSRFKGSRSGTQFTLTITDLECDDAATYYCQCSYYGNSYVGGAFGGGTEVVVK | ~10 ng/mL | 0.07 nM | –
LA-61 (antibody, V domains shown, Rabbit monoclonal IgG; also called mAb LA-61) VH: EQLMEESGGRLVTPGTPLTLTCTASGFDVNAYHMGWVRQAPGKGLEWIGYIYSGGTIFYANWAKGRFTLSRTSTTVDLKITSPTTEDTATYFCARGGYDNYNILYDLWGPGTLVTISS VL: ELDMTQTPASVSEPVGGTVTIKCQASQSISVYLAWYQQKPGQPPKLLIYDASTLTSGVPSRFKGSGSGTEFTLTISDLECADAAAYYCQSYDGTPTAAFGGGTEVVVK | ~20 ng/mL | 0.05 nM | –
LA-199 (antibody, V domains shown, Rabbit monoclonal IgG) VH: EQSVEESGGRLVTPGTPLTLTCTASGFSLSSYAMIWVRQAPGEGLEWIGDIYAGGGATYYASWAKGRFTISKTSTTVDLKITSPTTEDTATYFCARAYGSGYDLWGPGTLVTVSS VL: ELDLTQTPASVEVAVGGTVTIKCQASQSISSYLSWYQQKPGQPPKLLIYYASTMASGVPSRFSGSGSGTQFTLTISDLECADAATYYCQQGDSRSNVDNIFGGGTEVVVK | ~20 ng/mL | 0.16 nM | –
LA-82 (antibody, V domains shown, Rabbit monoclonal IgG; also called mAb LA-82) VH: EQSLEESGGDLVKPGASLTLACTASGFSFSDGYYMCWVRQAPGKGLEWIGCIHSSSGSIYYASWAKGRFTISKTSSTMVTLQMSSLTAADTATYFCARDSESYGYNPCELWGPGTLVTISS VL: ELVMTQTPASVSEAVGGTVTIKCQASQTISNYLAWYQQKPGQRPKLLIYAASSLASGVSSRFRGSRSGTEYTLTITDLECDDAATYYCQCTYYGTTYIGGAFGGGTEVEIK | ~10 ng/mL | 0.1 nM | 1.1%
LA-29 (antibody, V domains shown, Rabbit monoclonal IgG; also called mAb LA-29) VH: SSSVEESGGGLVQPEGSLTLTCTASGFSFSSRYYMCWVRQAPGKGLEWIACIYNGDGSRYYASWAKGRFTISKTSSTTVTLQMTSLTAADTATYFCVRDRHTAFVDYGDDNLWGPGTLVTVSS VL: ELDLTQTPASVSEPVGGTVTIKCQASQSIYSNLAWYQQKPGQPPKLLIYRASTLASGVPSRFKGSGAGTEFTLTISDLECADAATYYCQCTYDGISYVPSSFGGGTEVVVK | ~10 ng/mL | 0.02 nM | –
LA-89 (antibody, V domains shown, Rabbit monoclonal IgG; also called mAb LA-89) VH: QSVKESGGRLVTPGTPLTLTCTVSGFSLSSNAISWVRQAPGKGLEWIGYIYGDGRTFYASWAKGRFTISKTSTTVDLKMTSLTSEDTATYFCIKSLHLWGPGTLVTISS VL: ELDMTQTASPVSAAVGGTVTINCQSSQSVYNKNQLFWYQQKPGQPPKLLIYDASTLASGVPSRYKGSGSGTQFTLTISGVQCDDAATYYCLGEYTGNIYTFGEGTEVVVK | ~10 ng/mL | 0.08 nM | –
LA-141 (antibody, V domains shown, Rabbit monoclonal IgG) VH: QSLEESGGRLVKPDESLTLTCTVSGFSLSSNAMSWVRQAPGKGLEWIGYIYGDGRTFYANWAKGRITISRTSTTVDLKMTSLRTEDTATYFCVKSLILWGPGTLVTISS VL: ELDMTQTPSPVSAAVGGTVTINCQSSHSVYNANQLYWYQQKPGQPPKLLIYDASTLASGVPSRFKGSGSGTQFTLTISGVQCDDAATYYCLGEYSGNIYVFGEGTEVEIN | ~10 ng/mL | 0.05 nM | –
LA-259-1 (antibody, V domains shown, Rabbit monoclonal IgG) VH: QSVKESGGRLVTPGTPLTLTCTASGFSLYKYNIQWVRQAPGKGLEYIGASTYAGYTYYASWAKGRVTISRTSTTVDLKMTSPTTEDTATYFCARHIDGDYSGYALWGPGTLVTISS VL: ELVLTQTPASVSAAVGGTVTIKCQASQSIGTWFAWYQQKPGQSPKLLIYGPSKLASGVPPRFKGSGSGTEFTLTISDLECADAATYYCQSTYFGVDYLGGTFGGGTEVVVK | ~30 ng/mL | 0.23 nM | –
LA-142-2 (antibody, V domains shown, Rabbit monoclonal IgG) VH: AAVKESGGRLVTPGTPLTLTCTASGFSLYKYNIQWVRQAPGKGLEYIGASTYAGYTYYASWAKGRVTISRTSTTVDLKMTSPTTEDTATYFCARHIDGDYSGYALWGPGTLVTVSS VL: ELVLTQTPASVSAAVGGTVTIKCQASQSIGTWFAWYQQKPGQSPKLLIYGASNLASGVSSRFKGIRSGTEYTLTISDLECADAATYYCQCSDVGNTYGAAFGGGTEVEIN | ~40 ng/mL | 0.28 nM | –
LA-142-1 (antibody, V domains shown, Rabbit monoclonal IgG) VH: AAVKESGGRLVTPGTPLTLTCTASGFSLYKYNIQWVRQAPGKGLEYIGASTYAGYTYYASWAKGRVTISRTSTTVDLKMTSPTTEDTATYFCARHIDGDYSGYALWGPGTLVTVSS VL: ELVLTQTPASVSAAVGGTVTIKCQASQSIGTWFAWYQQKPGQSPKLLIYGPSKLASGVPPRFKGSGSGTEFTLTISDLECADAATYYCQSTYFGVDYLGGTFGGGTEVEIK | ~40 ng/mL | 0.25 nM | –
